Source: the supplement of paper PMC9170038

Test system: MS2 coat protein
Test: apparent KD of MS2 coat protein; designed switch direction (-1 OFF switch, 1 ON switch): -1; higher = weaker reporter binding
Summary of the method: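 Apparent KD, taken as the median over clusters for each design, was obtained by curve-fitting normalised cluster fluorescence. Designed RNA switches had been transcribed on Illumina chips by stalled E. coli RNA polymerase and titrated with SNAP-549-labelled MS2 coat protein, doubling from 0.7 or 1.5 nM to 3 µM.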

[1] = input ligand: microRNA oligo, concentration not stated
[2] = Eterna round: R95, input ligand: FMN 200 uM
[3] = Eterna round: R95, input ligand: microRNA oligo, concentration not stated
[4] = Eterna round: R95, input ligand: none

Sequence	apparent KD of MS2 coat protein (input ligand: FMN 200 uM)	apparent KD of MS2 coat protein [1]	apparent KD of MS2 coat protein (input ligand: none)	apparent KD of MS2 coat protein [2]	apparent KD of MS2 coat protein [3]	apparent KD of MS2 coat protein [4]
AUAAAACGUGUAGGAUAUGCGUGGCGAAGCUAUGCAGAAGGACAUGAGGAUCACCCAUGUUCUAGCGUCUGCGUACAGAUGCUA [JL eng1 1.35 mod 4] (Eterna round: R96, puzzle: Exclusion NG 1)	18.2 nM	10.9 nM	14.8 nM			
UAUAUGUCAGGAUAUUAGUUGAGGUGGAAUUUAGCCUAUGCUGAGAAGGGACAUGAGGAUCACCCAUGUUCCUC [JR_Ex4_Sub011] (Eterna round: R97, puzzle: Exclusion 4)	93.9 nM		19.1 nM			
AUGGAAGAGCAAUAGCUCUACAUGAGGAUCACCCAUGUAGGAAAUACUGGGUACAGCGGGCUUUUUGCUCGGCUUAU [Alacar Attempt 4] (Eterna round: R97, puzzle: Sensor, turn-off variant 1)	364 nM		412 nM			
AUGACAGGACAUGAGGAUCACCCAUGUACACGACCAAUGACCGAGGAUAUCGAUUGCAUGCAGGUCGAGAAGGCGGAGUAUCCA [Eternabot solution 3] (Eterna round: R96, puzzle: Exclusion NG 3)	18.2 nM	30.9 nM	28.1 nM			
AGUACUAUCACGAAAGUGAUAGUACAAAUAGCAAGUGAAACAUGAGGAUCACCCAUGUCCUCAUUUGCUCGUCUUAU [Mat - Sensor v2 -ver2- JL mod - D65] (Eterna round: R96, puzzle: Sensor v2, turn-off variant 2)	12.1 nM	409 nM	14.3 nM			
CGGCGACAUGAGGAUCACCCAUGUGAGGAUAUGACGGGAAAAGCGUGAGCAGUUUGUGGCAGAAGGCGCGUAGG [salish99_ex1_r4_083] (Eterna round: R97, puzzle: Exclusion 1)	23.5 nM		117 nM			
UGUACUAACACGAAAGUGUUAGUACAAUAAGCUUGUGUUACAUGAGGAUCACCCAUGUCCUCAUAAGCUCGUCUUAU [Mat - Sensor v3 - Turn-off var 2 - D51] (puzzle: Sensor v3, turn-off variant 2)				88.2 nM	52.3 nM	99.2 nM
ACAAAGUGAGGAUAUACUAAAACCCUCAUACCCAAAAGGGAACAUGAGGAUCACCCAUGUAGAAGGCACAUAAU [Esmainleor] (puzzle: Exclusion 2)				549 nM	100 nM	92.3 nM
AGAAAUGCCCAUGGCCGCAAGCUUUCUGCUUGUCUUACCACAUGAGGAUCACCCAUGUGACAUGGGCUCCUUAUAAU [Soralaer] (puzzle: Sensor v3, turn-off variant 2)				14.4 nM	11 nM	13.2 nM
AACUGGACAGGAUAUGUUCUUGAGCACUUGAGGAUCACCCAAGUCAUCAAGAACUCAGGCACAGAAGGGUUUAUGU [salish99_ex5_r4_002] (Eterna round: R97, puzzle: Exclusion 5)	45.9 nM		13.6 nM			
GGUGCGUUUGUGAGGAUAUGCUGGUCCUUGGUUCGGCAGAAGGCACAUGAGGAUCACCCAUGUGGUGUCGUUCC [salish99_Bmod_Ex4_047] (puzzle: Brourd's mod of Exclusion 4)					13.9 nM	
CCCUCACAUGAGGAUCACCCAUGUCAGGAUAUCUAGUCAGACAGUAUAGCACUGCUGAAGAGAAGGGACGUAAA [Labiusce] (puzzle: Exclusion 1)					17 nM	
GUACUAGAAUAUCAGUCGCACAUGAGGAUCACCCAUGUCAUGGGUAGAUAAAUAAAUAAAGAUACUGCUCGUCUUAU [Cac sensor turnoff var1 sub1] (Eterna round: R97, puzzle: Sensor, turn-off variant 1)	277 nM		399 nM			
AUAUUUAAUAUAGGAUAUAGGAAGAAUGAUGAACUAGAAGGAUAACAUACAUGAGGAUCACCCAUGUCCCAUGUGAUCACCCAU [Seems to work in some way] (Eterna round: R96, puzzle: Exclusion NG 1)		257 nM				
UUAUUAAGUGUGAGGAUAUGCUGGUCCUUGGAUCAGCAGAAGGCACAUGAGGAUCACCCAUGUAAUAUAUUUAU [JL bmx4 3.09] (puzzle: Brourd's mod of Exclusion 4)					75.8 nM	
AAAUUAGCAAGUAGGUCCGACAUGAGGAUCACCCAUGUUAUCUGAAAUAACGCUGCAUGAAAGUGCGCUCGUCUUAG [Sensor-V1 #9] (Eterna round: R97, puzzle: Sensor, turn-off variant 1)	65.3 nM		73.9 nM			
AAUAGCAAGUAAGAUCCUAACAUGAGGAUCACCCAUGUGCUCGUCUUAUAAAGUACUAUCACGAAAGUGAUAGUACA [Sensor 3, v1 - 47] (puzzle: Sensor v3, turn-off variant 1)				64.8 nM	51.4 nM	74.3 nM

Sequence	apparent KD of MS2 coat protein (input ligand: FMN 200 uM)	apparent KD of MS2 coat protein [1]	apparent KD of MS2 coat protein (input ligand: none)	apparent KD of MS2 coat protein [2]	apparent KD of MS2 coat protein [3]	apparent KD of MS2 coat protein [4]
AAGUACCGUCACGAUAGUGAUGGUACAGCAAGCAAAUGUACAUGAGGAUCACCCAUGUCCUCUUUUGCUCGUCUUAU [Sensor 3 - 98] (puzzle: Sensor v3, turn-off variant 2)				49.1 nM	31.1 nM	53.2 nM
GCUGGACAUGAGGAUCACCCAUGUGAGGAUAUCGGCUGGUACGUGUUGGCUGGCAUCUCGAGAAGGCACAUAGU [Exclusion 1 V63] (puzzle: Exclusion 1)					28.2 nM	
GAUGUGGGUUUCCGGAGUAACAUGAGGAUCACCCAUGUAGAAGUUGGAGGGAUCAAGCUUUUUGGUCGUCAUAUGUG [JR_SV3TOV1_Sub052] (puzzle: Sensor v3, turn-off variant 1)				288 nM	246 nM	422 nM
GAGAAAUGUGUUAGGAUAUCCCGCUAAAGCAGAUAGGAGAAGGAACAUGAGGAUCACCCAUGUAGGGAGGGCCA [Eternabot (Original) Solution 17] (Eterna round: R97, puzzle: Brourd's mod of Exclusion 4)	192 nM		67 nM			
UGAGCUUGUGUGAGGAUAUUUCGAGUGAAAGCUUGAGAGAAGGCACAUGAGGAUCACCCAUGUAAGCGAGUUCG [-26.1, -24 kcal, A 28%, 1bis-1] (Eterna round: R97, puzzle: Brourd's mod of Exclusion 4)	84.2 nM		86.8 nM			
GUAAAGUGAGGAUAUGGUAAAUUAAUUAUUUAUUAAUUAAUCCAGAAGGCACAUGAGGAUCACCCAUGUAAAUG [Mat - Exclusion 4 - D94] (puzzle: Exclusion 4)					26.5 nM	
CCGGUUUAGGAGGAUAUAGGAGUCGAUAGACACCUAGAAGGCCUAACAUGAGGAUCACCCAUGUGACCUUCCGG [Mod of Eli 30 - Jieux - Exclusion 6] (Eterna round: R97, puzzle: Exclusion 6)	234 nM		76 nM			
UAUUAACAAGUAAGAUCCUACAUGAGGAUCACCCAUGUGCUCGUCUUAUAAGGUACUGUGACGAAAGUCACGGUACC [Sensor 3, v1 - 72] (puzzle: Sensor v3, turn-off variant 1)				37.6 nM	46.7 nM	39.4 nM
GUCACCUCGGUGACAAAGCACAUGAGGAUCACCCAUGUAUGUGCUUGGAAACAAGCAUUUUGUUCGUCUUAUAAGAA [same principle] (Eterna round: R96, puzzle: Sensor v2, turn-off variant)	22.7 nM	95.4 nM	21.6 nM			
UAAUGCAGGUAAAGAUUCUACAUGAGGAUCACCCAUGUGCUCGUCUUAUAAAGUACUAUCACGAAAGUGAUAGUACA [Mat - Sensor v3 - turn-off var 1 - Eli Mod - D101] (puzzle: Sensor v3, turn-off variant 1)				27.6 nM	220 nM	24.8 nM
CAGGUGUAAGGAUAUACCGGAUGGUCCAAAGCUUGGCAAAGACAUGAGGAUCACCCAUGUAGAAGGUACGUCCG [Eternabot (Original) Solution 21] (Eterna round: R97, puzzle: Exclusion 2)	313 nM		383 nM			
CUCCUCAUGACGCCCAACCACAUGAGGAUCACCCAUGUGCAGGCUUUUUGUCGUCUUAUAAUAAAACCGAGGAUGCG [Edusveti] (puzzle: Sensor v3, turn-off variant 1)				13.3 nM	49.4 nM	13 nM
UACAUGAGGAUCACCCAUGUUUUGUCGUGUAUGGUAUUUAUCUAGGAUAUCACGUUAUUUAUUUAUGAGAAGGAGAAUAUUAAU [JMF's solution 26] (Eterna round: R96, puzzle: Exclusion NG 3)	38.9 nM	17.1 nM	39 nM			
UGGUAACAUGAGGAUCACCCAUGUCAGGAUAUCAGUAAGAAGAGAUUAGAUUAGAAUAUGAGAAGGGACUAUAG [Excluse me! 2 - Jieux - Exclusion 1] (puzzle: Exclusion 1)				30.1 nM	40.3 nM	37.8 nM
UCAAUACGGAAGGAUAUGCCGAAGCAUGCGCAGGCAGAAGGUCUGACAUGAGGAUCACCCAUGUUGGAGAUCAA [Eternabot (L2) Solution 21] (Eterna round: R97, puzzle: Exclusion 6)	82.1 nM		19.1 nM			
UGUUUAUAUGAAGGAUAUACUUAACAUGAGGAUCACCCAUGUGGUGUUGUGAGUGAGUGAGUUUAGUAGAAGGUCAAUUAUUUU [JMF's solution 31] (Eterna round: R96, puzzle: Exclusion NG 2)		303 nM				
